From patent US20230348867 come the findings set out here.

Experiment in all cases: cell_activity
Data set [1] relates to SB100X (Variant 27) K14R,K33A,R115H,R214D,K215A,E216V,N217Q,M243H,T314N (synthetic). Conditions: human CD34+ HSC, GFP+ CFU-E.
In data set [2] the test system is SB Variant 14 K14R,K30R,R143L,A205K,H207V,K208R,D210E,R214D,K215A,E216V,N217Q,M243H (synthetic). The settings on record: HeLa transposition.
In data set [3] the test system is SB Variant 5 K13A,K33A,R214D,K215A,E216V,N217Q (synthetic). The settings on record: HeLa transposition.
The subject of data set [4] is SB Variant 3 (6A5) K14R,K30R,A205K,H207V,K208R,D210E,R214D,K215A,E216V,N217Q,M243H (synthetic). The settings on record: HeLa transposition.
Data set [5] has as its system SB Variant 12 K14R,T83A,M243Q,T314N (synthetic). The settings on record: HeLa transposition.
For data set [6], the system named is SB10 Sleeping Beauty transposase (synthetic (reconstructed from fish)). Conditions: HeLa transposition, G418 colonies, reference.
For data set [7], the system named is SB Variant 18 K14R,K30R,A205K,H207V,K208R,D210E,R214D,K215A,E216V,N217Q,M243H,G317E (synthetic). Conditions: HeLa transposition.
Data set [8] relates to SB Variant 7 (12B1) K14R,T83A,M243Q (synthetic). The settings on record: HeLa transposition.
In data set [9] the test system is SB Variant 1 (2G6/6G2) K14R,R214D,K215A,E216V,N217Q (synthetic). The settings on record: HeLa transposition.
Data set [10] deals with SB Variant 17 K14R,K30R,A205K,H207V,K208R,D210E,R214D,K215A,E216V,N217Q,M243H,T314N (synthetic). The settings on record: HeLa transposition.
The subject of data set [11] is SB Variant 23 K14R,K30R,R143L,A205K,H207V,K208R,D210E,R214D,K215A,E216V,N217Q,M243H,G317E (synthetic). The settings on record: HeLa transposition.
The test system of data set [12] is SB Variant 15 K14R,K30R,R147E,A205K,H207V,K208R,D210E,R214D,K215A,E216V,N217Q,M243H (synthetic). Conditions: HeLa transposition.
The subject of data set [13] is SB Variant 16 K14R,K30R,A205K,H207V,K208R,D210E,R214D,K215A,E216V,N217Q,M243H,E267D (synthetic). The settings on record: HeLa transposition.
In data set [14] the test system is SB Variant 2 (3D5) K33A,R115H,R214D,K215A,E216V,N217Q,M243H (synthetic). Conditions: HeLa transposition.
Data set [15] relates to SB M3a (Variant 30) K13A,K33A,T83A,R214D,K215A,E216V,N217Q (synthetic). The settings on record: HeLa transposition.
Data set [16] deals with SB Variant 6 K33A,T83A,R214D,K215A,E216V,N217Q,G317E (synthetic). The settings on record: HeLa transposition.
Data set [17] has as its system SB Variant 8 K14R,T83A,I100L,M243Q (synthetic). The settings on record: HeLa transposition.
The test system of data set [18] is SB Variant 20 K14R,K30R,R147E,A205K,H207V,K208R,D210E,R214D,K215A,E216V,N217Q,M243H,T314N (synthetic). Conditions: HeLa transposition.
Data set [19] deals with SB Variant 4 K13D,K33A,T83A,H207V,K208R,D210E,M243Q (synthetic). Conditions: HeLa transposition.
For data set [20], the system named is SB Variant 21 K14R,K30R,R143L,A205K,H207V,K208R,D210E,R214D,K215A,E216V,N217Q,M243H,E267D (synthetic). Conditions: HeLa transposition.

Turning to pT2-HB-CAG-GFP SB transposon, the binding signal in data set [1] stood at 100 fold vs SB10.

As for “pTNeo (SB inverted repeats flanking NeoR)”, the binding signal in data set [2] is 40 fold vs SB10; in data set [3], 20 fold vs SB10; in data set [4], 30 fold vs SB10; in data set [5] it was 10 fold vs SB10; in data set [6] it was 1 fold vs SB10; in data set [7], 25 fold vs SB10. The binding signal in data set [8] is 15 fold vs SB10; in data set [9], 20 fold vs SB10; in [10], 25 fold vs SB10; in data set [11], 35 fold vs SB10; in [12], 30 fold vs SB10; in [13], 30 fold vs SB10. For the same substance, the binding signal was found to be 30 fold vs SB10 in [14]; 10 fold vs SB10 in data set [15]; 20 fold vs SB10 in data set [16]; 5 fold vs SB10 in data set [17]; 40 fold vs SB10 in data set [18]; 20 fold vs SB10 in data set [19]. The binding signal in [20] worked out at 50 fold vs SB10.
